Laboratory results published in US20240117030A1 (Pfizer, published 2024).
Read-outs that look alike come from different tables or passages of the source.

Columns and labels:
[1] = biological target: T1, biotinylated human IL-33 wild-type (WT), reduced with 3 mM DTT (human, UniProt O95760 112-270, limits assumed, biotinylated (site not stated)); test: KinExA solution affinity, fixed antigen format, global fit
T1 sequence (looked up): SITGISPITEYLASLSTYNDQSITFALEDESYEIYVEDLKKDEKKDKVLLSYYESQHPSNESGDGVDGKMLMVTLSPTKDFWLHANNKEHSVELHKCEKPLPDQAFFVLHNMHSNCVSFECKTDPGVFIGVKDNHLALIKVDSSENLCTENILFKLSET

[2] = biological target: T2, recombinant human IL-33 (R&D Systems 3625-IL), reduced with DTT (human, UniProt O95760 112-270, limits assumed); test: cell-based or functional assay
T2 sequence (looked up): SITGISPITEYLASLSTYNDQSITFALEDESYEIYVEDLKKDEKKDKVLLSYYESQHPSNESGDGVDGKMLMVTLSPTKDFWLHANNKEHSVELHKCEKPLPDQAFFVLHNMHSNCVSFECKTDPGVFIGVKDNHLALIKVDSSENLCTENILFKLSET

[3] = biological target: T2, recombinant human IL-33 (R&D Systems …); test: cell-based or functional assay; remark: listed apart in the source
[4] = biological target: T2, recombinant human IL-33 (R&D Systems …); test: cell-based or functional assay; remark: listed apart in the source
human IL-33 mm2 Cys = biological target: T3, human IL-33 mm2 Cys (human, UniProt O95760 112-270, limits assumed); test: cell-based or functional assay
T3 sequence (looked up): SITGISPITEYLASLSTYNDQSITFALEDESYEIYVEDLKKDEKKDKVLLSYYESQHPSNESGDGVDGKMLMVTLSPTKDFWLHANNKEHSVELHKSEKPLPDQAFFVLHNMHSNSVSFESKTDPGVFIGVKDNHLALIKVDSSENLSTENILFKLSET

recombinant human IL-12 [5] = biological target: T4, recombinant human IL-12 (human, UniProt P29459 23-219; P29460 23-328); test: cell-based or functional assay
T4 sequence (looked up) 1: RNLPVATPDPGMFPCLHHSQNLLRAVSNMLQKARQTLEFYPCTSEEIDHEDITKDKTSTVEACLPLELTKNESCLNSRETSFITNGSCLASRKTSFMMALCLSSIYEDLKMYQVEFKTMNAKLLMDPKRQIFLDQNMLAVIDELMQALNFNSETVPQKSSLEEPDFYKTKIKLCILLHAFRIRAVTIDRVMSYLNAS
T4 sequence (looked up) 2: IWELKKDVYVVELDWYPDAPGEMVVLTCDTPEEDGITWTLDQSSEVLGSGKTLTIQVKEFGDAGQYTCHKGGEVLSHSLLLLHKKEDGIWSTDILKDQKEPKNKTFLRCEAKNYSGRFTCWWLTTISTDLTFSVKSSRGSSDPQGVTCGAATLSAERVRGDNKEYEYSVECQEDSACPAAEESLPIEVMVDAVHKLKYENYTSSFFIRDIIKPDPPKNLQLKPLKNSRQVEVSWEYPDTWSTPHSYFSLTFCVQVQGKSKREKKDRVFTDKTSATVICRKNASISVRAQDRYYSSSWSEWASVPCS

recombinant human IL-23 [6] = biological target: T5, recombinant human IL-23 (human, UniProt Q9NPF7 20-189; P29460 23-328); test: cell-based or functional assay
T5 sequence (looked up) 1: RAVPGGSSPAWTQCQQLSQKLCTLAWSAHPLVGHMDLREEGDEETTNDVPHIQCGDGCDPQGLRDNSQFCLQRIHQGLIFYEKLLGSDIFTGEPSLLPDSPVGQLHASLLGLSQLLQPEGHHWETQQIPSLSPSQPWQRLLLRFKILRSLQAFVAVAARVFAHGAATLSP
T5 sequence (looked up) 2: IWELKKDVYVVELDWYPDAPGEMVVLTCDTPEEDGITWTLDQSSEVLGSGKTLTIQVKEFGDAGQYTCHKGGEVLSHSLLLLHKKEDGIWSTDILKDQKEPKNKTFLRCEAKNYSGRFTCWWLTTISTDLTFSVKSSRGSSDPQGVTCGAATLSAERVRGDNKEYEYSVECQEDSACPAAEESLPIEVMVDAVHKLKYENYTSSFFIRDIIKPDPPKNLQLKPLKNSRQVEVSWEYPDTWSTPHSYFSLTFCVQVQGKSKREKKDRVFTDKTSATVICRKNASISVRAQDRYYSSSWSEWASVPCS

recombinant human IL-12 [7] = biological target: T4, recombinant human IL-12; test: cell-based or functional assay; remark: listed apart in the source
recombinant human IL-23 [8] = biological target: T5, recombinant human IL-23; test: cell-based or functional assay; remark: listed apart in the source
recombinant human IL-13 [9] = biological target: T6, recombinant human IL-13 (human, UniProt P35225 35-146); test: cell-based or functional assay
recombinant human IL-4 [10] = biological target: T7, recombinant human IL-4 (human, UniProt P05112 25-153); test: KinExA, fixed antigen format
T7 construct: Recombinant cytokine from several sources (R&D Systems, Syngene); treated as one molecule; also called rHu IL-4
T7 sequence (looked up): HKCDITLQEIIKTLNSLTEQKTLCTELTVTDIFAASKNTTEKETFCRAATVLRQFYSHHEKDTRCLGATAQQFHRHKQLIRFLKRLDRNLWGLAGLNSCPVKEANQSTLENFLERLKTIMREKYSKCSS

[11] = biological target: T8, recombinant cynomolgus monkey IL-4 (cynomolgus monkey, UniProt P79339 25-153); test: KinExA, fixed antigen format
T8 construct: also called Cyno IL-4
T8 sequence (looked up): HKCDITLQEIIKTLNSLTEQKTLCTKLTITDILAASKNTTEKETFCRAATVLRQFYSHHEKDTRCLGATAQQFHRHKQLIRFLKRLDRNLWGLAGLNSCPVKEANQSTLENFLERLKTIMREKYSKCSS

[12] = biological target: T9, recombinant cynomolgus monkey IL-13 (cynomolgus monkey, UniProt Q0PW92 19-132); test: cell-based or functional assay
recombinant human IL-13 [13] = biological target: T6, recombinant human IL-13; test: cell-based or functional assay; remark: listed apart in the source
recombinant human IL-4 [14] = biological target: T7, recombinant human IL-4; test: cell-based or functional assay
recombinant human IL-4 [15] = biological target: T7, recombinant human IL-4; test: cell-based or functional assay; remark: listed apart in the source
recombinant human IL-13 [16] = biological target: T6, recombinant human IL-13; test: cell-based or functional assay; remark: listed apart in the source
[17] = biological target: T9, recombinant cynomolgus monkey IL-13; test: KinExA, fixed antigen format
recombinant human IL-13 [18] = biological target: T6, recombinant human IL-13; test: KinExA, fixed antigen format
recombinant human IL-4 [19] = biological target: T7, recombinant human IL-4; test: cell-based or functional assay; remark: listed apart in the source
[20] = biological target: T8, recombinant cynomolgus monkey IL-4; test: cell-based or functional assay

T6 sequence (P35225 35-146 limits assumed): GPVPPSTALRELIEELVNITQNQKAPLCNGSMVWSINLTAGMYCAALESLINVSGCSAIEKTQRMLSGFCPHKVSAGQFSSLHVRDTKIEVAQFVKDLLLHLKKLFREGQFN
T9 sequence (Q0PW92 entry or part of it limits assumed): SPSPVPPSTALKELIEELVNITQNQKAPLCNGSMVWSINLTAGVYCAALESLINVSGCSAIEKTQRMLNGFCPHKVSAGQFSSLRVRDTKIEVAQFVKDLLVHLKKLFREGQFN

B1: IL33-0232 (antibody, human IgG1, kappa, V domains shown)
VH: EVQLVESGGGLVQPGGSLRLSCAASGFTFSSYWMYWVRQAPGKGLEWVAAITPNAGEDYYPESVKGRFTISRDNAKNSLYLQMNSLRAEDTAVYYCARGHYYYTSYSLGYWGQGTLVTVSS
VL: DIQMTQSPSSLSASVGDRVTITCKASQNINKHLDWYQQKPGKAPKLLIYFTNNLQTGVPSRFSGSGSGTDFTLTISSLQPEDFATYYCFQYNQGWTFGGGTKVEIKR
- Kd [1]: 0.0034 nM
- IC50 [nM] versus reduced human IL-33 (R&D), IC50 (AVE) [2]: 0.071 nM
- IC50 [pM] versus human reduced IL-33 (R&D), Experiment 1 (HEK-Blue SEAP) [3]: 35 pM
- IC50 [nM] versus reduced human IL-33 (R&D), IC50 (AVE) [4]: 0.109 nM
- IC50 [pM] versus human IL-33 mm2 Cys (HEK-Blue SEAP) (human IL-33 mm2 Cys): 142 pM

B2: p40-0003 (antibody, human IgG1, kappa, V domains shown)
VH: EVQLVQSGAEVKKPGESLKISCKGSGYSFTTYWLGWVRQMPGKGLDWIGIMSPVDSDIRYSPSFQGQVTMSVDKSITTAYLQWNSLKASDTAMYYCARRRPGQGYFDFWGQGTLVTVSS
VL: DIQMTQSPSSLSASVGDRVTITCRASQGISSWLAWYQQKPEKAPKSLIYAASSLQSGVPSRFSGSGSGTDFTLTISSLQPEDFATYYCQQYNIYPYTFGQGTKLEIKR
- IC50 (mean), Kit-225 assay, IL-12 induced phospho-STAT4 (recombinant human IL-12 [5]): 0.155 nM
- IC50 (mean), Whole blood assay, IL-12 induced phospho-STAT4 (recombinant human IL-12 [5]): 0.262 nM
- IC50 (mean), Kit-225 assay, IL-23 induced phospho-STAT3 (recombinant human IL-23 [6]): 0.85 nM
- IC50 (mean), Whole blood assay, IL-23 induced phospho-STAT3 (recombinant human IL-23 [6]): 4.51 nM
- IC50 (mean), Kit-225 assay, IL-12 induced phospho-STAT4 (recombinant human IL-12 [7]): 0.155 nM
- IC50 (mean), Whole blood assay, IL-12 induced phospho-STAT4 (recombinant human IL-12 [7]): 0.262 nM
- IC50 (mean), Kit-225 assay, IL-23 induced phospho-STAT3 (recombinant human IL-23 [8]): 0.85 nM
- IC50 (mean), Whole blood assay, IL-23 induced phospho-STAT3 (recombinant human IL-23 [8]): 4.51 nM

B3: IL413TSLP-1024 (other)
heavy: not shown
chain 1: DIQMTQSPSSLSASVGDRVTITCKASESVDHFGWSLVHWYQQKPGKAPKLLIYRASNLESGVPSRFSGSGSGTDFTLTISSLQPEDFATYYCQQSNEDPWTFGGGTKVEIKRTVAAPSVFIFPPSDEQLKSGTASVVCLLNNFYPREAKVQWKVDNALQSGNSQESVTEQDSKDSTYSLSSTLTLSKADYEKHKVYACEVTHQGLSSPVTKSFNRGECGGGGSEVTLRESGPALVKPTQTLTLTCTFSGFSLSNFGEGLSWIRQPPGKGLEWLAHIYWDDDKRYNPSLKSRLTISKDTSRNQVVLTMTNMDPVDTATYYCARRETVFYWYFDVWGQGTTVTVSSASTKGPSVFPLAPSSKSTSGGTAALGCLVKDYFPEPVTVSWNSGALTSGVHTFPAVLQSSGLYSLSSVVTVPSSSLGTQTYICNVNHKPSNTKVDKKVEPKSCEKTHTCPPCPAPEAAGAPSVFLFPPKPKDTLMISRTPEVTCVVVDVSHEDPEVKFNWYVDGVEVHNAKTKPREEQYNSTYRVVSVLTVLHQDWLNGKEYKCKVSNKALPAPIEKTISKAKGQPREPQVYTLPPSREEMTKNQVSLTCEVKGFYPSDIAVEWESNGQPENNYKTTPPVLDSDGSFFLYSKLTVDKSRWQQGNVFSCSVLHEALHSHYTQKSLSLSPGK
light 1: SYVLTQPPSVSVAPGQTARITCGGNNLGSKSVHWYQQKPGQAPVLVVYDDKDRPSWIPERFSGSNSGNTATLTISRGEAGDEADYYCQVWDSKSDHVVFGGGTKLTVLGQPKAAPSVTLFPPSSEELQANKATLVCLISDFYPGAVTVAWKADSSPVKAGVETTTPSKQSNNKYAASSYLSLTPEQWKSHRSYSCQVTHEGSTVEKTVAPTECS
light 2: DIQMTQSPSSLSASVGDRVTITCRASQSVDEEGDSYMNWYQQKPGKAPKLLIYAASNLESGVPSRFSGSGSGTDFTLTISSLQPEDFATYYCQQSNKDPPTFGGGTKVEIKRTVAAPSVFIFPPSDEQLKSGTASVVCLLNNFYPREAKVQWKVDNALQSGNSQESVTEQDSKDSTYSLSSTLTLSKADYEKHKVYACEVTHQGLSSPVTKSFNRGEC
chain 2: EVQLVESGGGLVQPGGSLRLSCAASGFTFSSYAMSWVRQAPGKGLEWVASISSGDTTYYPDSVKGRFTISRDNAKNSLYLQMNSLRAEDTAVYYCARNEGYYFGLTLWGQGTLVTVSSASTKGPSVFPLAPSSKSTSGGTAALGCLVKDYFPEPVTVSWNSGALTSGVHTFPAVLQSSGLYSLSSVVTVPSSSLGTQTYICNVNHKPSNTKVDKKVEPKSC
notes: Trispecific Tri-Fab-Fc, dual cell, RR-EE, LS; Chains in order: SFab HC(3), DFab LC(1)-HC(2), SFab LC(3), DFab LC(2), modified Fd(1)
- IC50 (median), IL-13 induced CD23 expression on human monocytes (recombinant human IL-13 [9]): 0.013 nM
- Kd (recombinant human IL-4 [10]): 0.000323 nM
- Kd [11]: < 0.000661 nM
- IC50 (median), CD23 expression, Human Whole Blood [12]: 0.0419 nM
- IC50 (median), CD23 expression, Peripheral Blood Monocytes [12]: 0.0316 nM
- IC50 (median), CD23 expression, Human Whole Blood (recombinant human IL-13 [13]): 0.0102 nM
- IC50 (median), CD23 expression, Peripheral Blood Monocytes (recombinant human IL-13 [13]): 0.013 nM
- IC50 (median), IL-4 induced CD23 expression on human monocytes (recombinant human IL-4 [14]): 0.00827 nM
- IC50 (median), IL-4 induced CD23 expression on human monocytes (recombinant human IL-4 [15]): 0.00827 nM
- IC50 (median), IL-13 induced CD23 expression on human monocytes (recombinant human IL-13 [16]): 0.013 nM
- Kd [17]: 0.000581 nM
- Kd (recombinant human IL-13 [18]): 0.000266 nM
- IC50 (median), CD23 expression, Human Whole Blood (recombinant human IL-4 [19]): 0.0236 nM
- IC50 (median), CD23 expression, Peripheral Blood Monocytes (recombinant human IL-4 [19]): 0.00827 nM
- IC50 (median), CD23 expression, Human Whole Blood [20]: 0.0164 nM
- IC50 (median), CD23 expression, Peripheral Blood Monocytes [20]: 0.0101 nM
